Tested on: N=C(N)NCCC[C@H](NC(=O)[C@H](Cc1ccccc1)NC(=O)OCc1ccccc1)C(=O)Nc1ccc([N+](=O)[O-])cc1
Test: purified protein
Conditions: proenzyme heat-shocked 10 min at 56°C, then activated, assay at room temperature

EP-B2 (Hordeum vulgare), sequence (chain, as listed by the source): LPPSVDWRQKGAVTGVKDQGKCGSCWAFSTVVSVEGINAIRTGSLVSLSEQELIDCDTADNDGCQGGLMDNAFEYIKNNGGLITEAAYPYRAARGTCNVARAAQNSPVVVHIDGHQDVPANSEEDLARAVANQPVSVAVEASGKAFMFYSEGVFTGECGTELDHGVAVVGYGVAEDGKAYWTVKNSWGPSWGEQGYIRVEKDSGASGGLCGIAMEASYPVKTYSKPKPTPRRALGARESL
EP-B2 (Hordeum vulgare; K311A), sequence (chain, as listed by the source K311A): as the sequence (chain, as listed by the source) above, with K178A counted along it

Row | Substance | Km (variant M3) [µM] | Vmax (variant M3) [µM/min] | Km [µM] | Vmax [µM/min]
1 | EP-B2 (Hordeum vulgare; K311A) | 1188 | 0.236 | – | –
2 | EP-B2 (Hordeum vulgare) | – | – | 530.0 | 0.142

From PMC7040222
